Test results from article PMC7229837, “Molecular architecture of the DNA-binding sites of the P-loop ATPases MipZ and ParA from Caulobacter crescentus”.
Substitutions are numbered along the chain they refer to.

Key:
Assay in all cases: MST; low-affinity group, KD >> 10 uM; EMSA: 10 mM HEPES/NaOH pH 7.2, 150 mM NaCl, 10 mM MgCl2, 0.05% Tween 20, 0.46 mM ATPgS, room temp; BLI: 50 mM HEPES/NaOH pH 7.2, 50 mM NaCl, 5 mM MgCl2, 0.1 mM
MipZ K13A = target: T1, MipZ K13A (Caulobacter crescentus, UniProt Q9A6C9 1-278, K13A); conditions: protein: recombinant; tags: C-terminal His6 (pET21a); label: Cy3 (5') on strand 1; blunt
T1 sequence: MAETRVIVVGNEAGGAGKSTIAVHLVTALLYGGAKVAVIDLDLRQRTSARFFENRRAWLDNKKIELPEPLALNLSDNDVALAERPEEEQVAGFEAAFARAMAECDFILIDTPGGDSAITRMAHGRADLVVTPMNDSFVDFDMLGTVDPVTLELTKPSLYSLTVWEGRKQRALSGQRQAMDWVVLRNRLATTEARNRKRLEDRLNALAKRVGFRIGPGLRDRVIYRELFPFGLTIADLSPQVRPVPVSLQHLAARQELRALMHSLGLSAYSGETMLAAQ

MipZ R242A = target: T2, MipZ R242A (Caulobacter crescentus, UniProt Q9A6C9 1-278, R242A); conditions: protein: recombinant; tags: C-terminal His6 (pET21a); chain copies: 2; label: Cy3 (5') on strand 1; blunt
T2 sequence: T1 sequence with A13K, R242A

MipZ R219A = target: T3, MipZ R219A (Caulobacter crescentus, UniProt Q9A6C9 1-278, R219A); conditions: protein: recombinant; tags: C-terminal His6 (pET21a); chain copies: 2; label: Cy3 (5') on strand 1; blunt
T3 sequence: T1 sequence with A13K, R219A

MipZ K197A = target: T4, MipZ K197A (Caulobacter crescentus, UniProt Q9A6C9 1-278, K197A); conditions: protein: recombinant; tags: C-terminal His6 (pET21a); chain copies: 2; label: Cy3 (5') on strand 1; blunt
T4 sequence: T1 sequence with A13K, K197A

MipZ L237A = target: T5, MipZ L237A (Caulobacter crescentus, UniProt Q9A6C9 1-278, L237A); conditions: protein: recombinant; tags: C-terminal His6 (pET21a); chain copies: 2; label: Cy3 (5') on strand 1; blunt
T5 sequence: T1 sequence with A13K, L237A

MipZ R196A = target: T6, MipZ R196A (Caulobacter crescentus, UniProt Q9A6C9 1-278, R196A); conditions: protein: recombinant; tags: C-terminal His6 (pET21a); chain copies: 2; label: Cy3 (5') on strand 1; blunt
T6 sequence: T1 sequence with A13K, R196A

Measured: Kd

B1: rand-Cy3/rand-rev 26 bp (dsDNA)
DNA 1: GAGGCAGACTAGATCTTCTAGTTCGG
DNA 2: CCGAACTAGAAGATCTAGTCTGCCTC
> 10 µM: all assays above
